No end group written: not given here.
B1: Synthetic FAM-labeled peptide corresponding to the IQ motif of iPLA2β (peptide)
chain: AWSEMVGIQYFR
modifications: also: FAM label (position not given here)
B2: Synthetic FAM-labeled peptide corresponding to the 1-9-14 motif of iPLA2β (peptide)
chain: RKGQGNKVKK
modifications: also: FAM label (position not given here)

Target: Calmodulin (CaM), unmodified (UniProt P0DP23 1-149)
Assay: fluorescence polarisation; synthetic FAM-labeled peptides of iPLA2β with CaM (Supplementary Figure 7h)
Details: both partners purified

| Binder | Kd [µM] |
| --- | --- |
| B1 | 5.9 ± 0.8 |
| B2 | 2.5 ± 0.4 |

— PMC5823874, “The structure of iPLA2β reveals dimeric active sites and suggests mechanisms of regulation and localization” (Nature Communications, 2018)
